The series is described as follows: protein stability index of a GFP-peptide fusion (GPS, HEK-293T) (PSI 1-6); higher = more stable.
Where [1] appears, read: treatment: DMSO, c terminus: a fixed tail appended.
The mark [2] stands for this setting: treatment: MLN4924 1 uM, 8 h, c terminus: a fixed tail appended.
Where [3] appears, read: treatment: DMSO, c terminus: native.
The mark [4] stands for this setting: treatment: MLN4924 1 uM, 8 h, c terminus: native.

± gives the standard deviation.
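Also: 24-mer peptide tiles fused after GFP, lentivirally expressed, FACS-sorted into six equal bins by GFP/DsRed ratio, decoded by Illumina sequencing, PSI is the read-weighted mean bin number.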

Take SHRAAGSGVSDYDYLDLDKMSLYS [TRIM9]: the protein stability index is, setting by setting: under setting [1], 3.4 ± 0.21; under setting [2], 3.44 ± 0.17.

Consider SIGIDNLGLKLEENLQETHSAVL [SLC35F2], for which the protein stability index was 4.34 ± 0.31 under setting [3] and 4.53 ± 0.19 under setting [4].

As for SIIILLELAILGGLVYYKFFRSH [VTI1B], the protein stability index under setting [3] came to 2.78 ± 0.27 and the protein stability index under setting [4] turned out to be 2.63 ± 0.45.

Regarding SITEMFGEFRTGKTQICHTLAVTC [RAD51], the protein stability index stood at 2.59 ± 0.33 under setting [1] and 2.05 ± 0.48 under setting [2].

In turn, SKIGFGILLSKEPDGVWAYNRGEH [SMAD6] returned a protein stability index under setting [1] of 2.43 ± 0.25 and a protein stability index under setting [2] of 2.71 ± 0.15.

Sequence SKLKGAAVKLADFGLAIEVEGEQQ [CAMK2A] came in with a protein stability index under setting [1] of 4.06 ± 0.11 and a protein stability index under setting [2] of 4.4 ± 0.31.

Consider SKQTEKDPGVQELEALIDTIQKQL [EFHC1], for which the protein stability index under setting [1] was 3.83 ± 0.28 and the protein stability index under setting [2] is 3.86 ± 0.3.

Consider SKTVTSTMLGVFREDPKTREEFLT [GCH1], for which the protein stability index is 4.12 ± 0.1 under setting [1] and 4.11 ± 0.24 under setting [2].

Regarding SKYADLSDAANRNHEALRQAKQEM [PRPH], the protein stability index was found to be 4.77 ± 0.064 under setting [1] and 4.89 ± 0.14 under setting [2].

Take SKYCYGPQGSRSPYIPPHAALCLE [FKBP8]: the protein stability index runs as follows: under setting [1], 2.46 ± 0.54; under setting [2], 2.74 ± 0.3.

For SLCKVFGAHKDCQVAPLTHVFQRQ [TRIM55], the protein stability index stood at 2.41 ± 0.35 under setting [1] and 2.66 ± 0.2 under setting [2].

Regarding SLIGHLQTLSPDMQGAYCTFPASV [DUSP5], the protein stability index is, setting by setting: under setting [1], 2.07 ± 0.35; under setting [2], 2.2 ± 0.38.

On to SLKDHKVSFLRSGTKLIFRRRPRQ [C2CD2L], for which the protein stability index by setting is: under setting [1], 3.24 ± 0.49; under setting [2], 3.44 ± 0.55.

For the sequence SLSVRHRQVKHYRIFRLPNNWYYI [SLA], the protein stability index is, setting by setting: under setting [1], 2.29 ± 0.7; under setting [2], 2.58 ± 0.49.

As for SLTDDKYDVAMNRAKDLVELDPEV [GOLPH3L], the protein stability index is, setting by setting: under setting [1], 5.37 ± 0.16; under setting [2], 5.4 ± 0.26.

On to SLVAPLLLELAGEVTDTGDPIVRP [MYORG], for which the protein stability index by setting is: under setting [1], 3.23 ± 0.33; under setting [2], 3.3 ± 0.23.

For SLVYYGLTLSAGDLGGSIYANLAL [SLC22A15], the protein stability index by setting is: under setting [1], 3.02 ± 0.6; under setting [2], 2.91 ± 0.45.

In the case of SMLPPVNFSIVPYEKKFDTFIPLE [SPATS1], the protein stability index amounted to 2.6 ± 0.26 under setting [1] and 2.49 ± 0.1 under setting [2].

SNADQLMENIGAIQVLPKLSSSII [KCNAB2]: the protein stability index by setting is: under setting [1], 3.21 ± 0.38; under setting [2], 3.23 ± 0.29.

Take SNGSMHNYCPQQTKITSAFKYINT [EDNRA]: the protein stability index runs as follows: under setting [1], 2.36 ± 0.35; under setting [2], 2.6 ± 0.26.

Consider SNYSLPPPLPTYHVLLEGEGLGQS [TRIM29], for which the protein stability index reads like this: under setting [1], 3.67 ± 0.23; under setting [2], 3.68 ± 0.22.

As to SPEKFQIEANFPRRVLPCIPSEEW [FAF2], the protein stability index was 3.75 ± 0.12 under setting [1] and 3.79 ± 0.29 under setting [2].

Take SPESSRGQCGENLAWASYDQTGKE [GLIPR2]: the protein stability index by setting is: under setting [1], 4.8 ± 0.21; under setting [2], 4.73 ± 0.27.

In the case of SPINMEDQERIKVERKRLRNRLAA [JUNB], the protein stability index runs as follows: under setting [1], 4.48 ± 0.55; under setting [2], 4.65 ± 0.087.

Turning to SPSENSKEAEILEVLRHPRDWVR [CPOX], the protein stability index by setting is: under setting [3], 4.42 ± 0.15; under setting [4], 4.53 ± 0.26.

Consider SPSNVQKWLLWTEHQYRLPPMGKA [SPDEF], for which the protein stability index was 2.42 ± 0.2 under setting [1] and 2.61 ± 0.19 under setting [2].

With SPTIIFDNWIPLLWCANILGYAVS [DHCR7], the protein stability index runs as follows: under setting [1], 3.36 ± 0.13; under setting [2], 3.48 ± 0.42.

Turning to SQDERLDVLLTLKHTVKEHECKLT [IQUB], the protein stability index by setting is: under setting [1], 3.41 ± 0.3; under setting [2], 3.41 ± 0.16.

Consider SQFKILVSLLENNIYVHDLLTFQQ [VPS39], for which the protein stability index reads like this: under setting [1], 3.02 ± 0.29; under setting [2], 3.21 ± 0.6.

In the case of SQKNEKALTNIQNCMAEKRETVLI [C8orf76], the protein stability index was 3.54 ± 0.29 under setting [1] and 3.69 ± 0.19 under setting [2].

For SQLAGQVNVEMDAAPGVDLTRVLA [KRT15], the protein stability index amounted to 4 ± 0.18 under setting [1] and 3.94 ± 0.057 under setting [2].

Sequence SQMFPSSKARTKSLLGDDVFSTMA [FBF1] displayed a protein stability index under setting [1] of 2.89 ± 0.26 and a protein stability index under setting [2] of 2.97 ± 0.21.

As to SRLMRRHKRRRRKQKVSRIERSSS [DVL3], the protein stability index was determined as 4.46 ± 0.27 under setting [1] and 4.43 ± 0.09 under setting [2].

With SRLNLTGLGYFSCHSHTVVQDYSY [CCDC3], the protein stability index was 2.12 ± 0.37 under setting [1] and 2.18 ± 0.11 under setting [2].

For SRRDDLEALGHMFMYFLRGSLPWQ [CSNK1G1], the protein stability index amounted to 3.48 ± 0.54 under setting [1] and 3.15 ± 0.86 under setting [2].

In the case of SSHHSHSYIGLPYADHNYGARPPP [KMT2E], the protein stability index is, setting by setting: under setting [1], 3.46 ± 0.16; under setting [2], 3.7 ± 0.27.

Regarding SSIPCSGSLDGRELSRQVRSSVEL [PPEF2], the protein stability index runs as follows: under setting [1], 4.298 ± 0.036; under setting [2], 4.17 ± 0.13.

For the sequence SSLFMDTEKSGKREFDVRQTPQVN [WEE1], the protein stability index is 4.58 ± 0.26 under setting [1] and 4.71 ± 0.27 under setting [2].

For SSNGNDNGNGKNGGLEHVPSSSSI [BNIP3L], the protein stability index runs as follows: under setting [1], 5.2 ± 0.29; under setting [2], 5.33 ± 0.17.

On to SSNKKEKKVLNHGYDDDNHDYIVR [DYRK1B], for which the protein stability index reads like this: under setting [1], 4.55 ± 0.22; under setting [2], 4.45 ± 0.19.

For the sequence SSVQSYPGSASLAQSRLEDPGADS [DLX1], the protein stability index runs as follows: under setting [1], 5.23 ± 0.2; under setting [2], 5.52 ± 0.24.

Regarding STARRSRAASSQRAEEEDDDIKQL [CHMP4C], the protein stability index was 5.59 ± 0.073 under setting [1] and 5.46 ± 0.25 under setting [2].

Turning to STDPNIVRKKERGREEKCVWKHGI [TAF7L], the protein stability index came out at 3.31 ± 0.37 under setting [1] and 3.51 ± 0.26 under setting [2].

In the case of STDTESNNEEQRSGLIYLTNHIAP [IKZF1], the protein stability index was determined as 4.63 ± 0.2 under setting [1] and 4.81 ± 0.21 under setting [2].

STEDMERALSEYLAVFARCLAGCE [P3H4] showed a protein stability index under setting [1] of 3.59 ± 0.2 and a protein stability index under setting [2] of 3.37 ± 0.32.

Regarding STLEESVVRICCIRSFGHFIARLQ [SMG5], the protein stability index by setting is: under setting [1], 2.29 ± 0.04; under setting [2], 2.19 ± 0.37.

On to STPRPPEASSSPPEGSQDRNTSWG [TLE6], for which the protein stability index is, setting by setting: under setting [1], 5.32 ± 0.17; under setting [2], 5.291 ± 0.047.

As for SYSFQNPSSFDPSMLLQRFSVAPH [RNF180], the protein stability index is, setting by setting: under setting [1], 2.58 ± 0.28; under setting [2], 2.68 ± 0.23.

For TAGEMVFVYENAKEGARNIRTSER [BTBD10], the protein stability index under setting [1] came out at 3.94 ± 0.21 and the protein stability index under setting [2] came out at 3.98 ± 0.14.

TAKDNGEAEDQEEKEDAEKENIEK [SRPK2] showed a protein stability index under setting [1] of 5.58 ± 0.12 and a protein stability index under setting [2] of 5.67 ± 0.25.

Turning to TAYSRLNETQPIDLSGLPLQSSKN [RNF180], the protein stability index reads like this: under setting [1], 3.76 ± 0.27; under setting [2], 3.86 ± 0.25.

On to TCICYLCMFQEHKNHSTVTVEEAK [TRIM29], for which the protein stability index was 2.24 ± 0.43 under setting [1] and 2.67 ± 0.51 under setting [2].

With TDLIWKNQNSWGTGEDVKVILKNS [LMNB1], the protein stability index under setting [1] is 3.47 ± 0.44 and the protein stability index under setting [2] came to 3.74 ± 0.26.

TETQRLGLAMALEPNTTFLRKSLK [FANCE]: the protein stability index was found to be 4.05 ± 0.19 under setting [1] and 4.14 ± 0.16 under setting [2].

Take TFTEHPMKYTSEKFLEICKLSGFM [TPRG1]: the protein stability index runs as follows: under setting [1], 2.35 ± 0.48; under setting [2], 2.22 ± 0.5.

Turning to TGAACRLVEAVLSGEVLNGAAVVR [HDAC6], the protein stability index is 2.13 ± 0.35 under setting [1] and 2.27 ± 0.28 under setting [2].

Consider TGASFQKAQQEFAAGVFSNPAVRT [SCAMP3], for which the protein stability index was determined as 3.73 ± 0.16 under setting [1] and 3.79 ± 0.25 under setting [2].

Regarding TGGPDACLRCWDQRTIMKPLEYQF [TLE6], the protein stability index under setting [1] was 2.29 ± 0.17 and the protein stability index under setting [2] came out at 2.74 ± 0.27.

In the case of TGGVTALCWDPVQRVLFSGSSDHS [WDFY2], the protein stability index by setting is: under setting [1], 2.73 ± 0.21; under setting [2], 2.78 ± 0.59.

As to THVLSKEVQHLREEKSKQFLDLME [LRRC45], the protein stability index under setting [1] was 3.66 ± 0.26 and the protein stability index under setting [2] worked out at 3.81 ± 0.26.

With TIDNDIVSMEIFFKAWLHNSGTDQ [M1AP], the protein stability index by setting is: under setting [1], 2.5 ± 0.23; under setting [2], 2.36 ± 0.084.

Consider TINNFSFCREEMGEVLKSSTFSSG [SPOPL], for which the protein stability index is 2.33 ± 0.21 under setting [1] and 2.53 ± 0.28 under setting [2].

Consider TKVQKKSLLLKKPLRVDLILENTS [NOP53], for which the protein stability index runs as follows: under setting [1], 2.71 ± 0.19; under setting [2], 2.84 ± 0.39.

Take TLCKADLEAQVESLKEELMCLKKN [KRT36]: the protein stability index under setting [1] turned out to be 3.51 ± 0.4 and the protein stability index under setting [2] amounted to 3.83 ± 0.15.

TLELCHDELFADLFNSNHKAGGAG [CEBPD] came in with a protein stability index under setting [2] of 4.24 ± 1.

In the case of TLFQTESPQSGSILTEETEVKGTL [PBXIP1], the protein stability index under setting [1] worked out at 4.92 ± 0.17 and the protein stability index under setting [2] amounted to 4.7 ± 0.25.

Consider TLTVFPPEETTPSPSRESPLSAP [KLHL13], for which the protein stability index by setting is: under setting [3], 5.16 ± 0.15; under setting [4], 5.18 ± 0.08.

For the sequence TNDGNHPSCQETRDYAPPSRGYAY [RBMY1A1], the protein stability index was 4.33 ± 0.12 under setting [1] and 4.36 ± 0.11 under setting [2].

Consider TNPDLYPVRRIDGLTDVSQIITVT [IQUB], for which the protein stability index reads like this: under setting [1], 2.86 ± 0.26; under setting [2], 3.06 ± 0.26.

Consider TPCGPAQACMGGRCLHMDQLQDFN [ADAMTS4], for which the protein stability index is, setting by setting: under setting [1], 2.63 ± 0.25; under setting [2], 2.75 ± 0.17.

TPKAAWIREEGRCSSSDDDTDVDM [PBXIP1]: the protein stability index runs as follows: under setting [1], 5.4 ± 0.32; under setting [2], 5.19 ± 0.38.

With TPLLMAARYGHLDMVEFLLEQCSA [FEM1C], the protein stability index by setting is: under setting [1], 2.28 ± 0.41; under setting [2], 2.26 ± 0.24.

Source of the values: the supplement of paper PMC10567573.
